{"source": "paper PMC4285798", "experiment_in_all_cases": "FRET or BRET; CFP (donor) and YFP (acceptor) fusions co-expressed from pETDuet-1 in E. coli; late exponential cells washed once with 0.9% NaCl, 150 μl in a 96 well plate, Tecan Infinite M200 Pro; excitation 435 nm, emission 466-610 nm; RCY = ratio of the emission maxima of eCFP (480 nm) and eYFP (525 nm); RCY 1.1–1.3 read as enrichment/interaction, 0.9–1.1 as approximation without interaction, <0.9 as no FRET", "key": {"[1]": {"molecular_target": "DivIVA-YFP (C. glutamicum)"}, "[2]": {"molecular_target": "DivIVAΔM-YFP (C. glutamicum)"}, "[3]": {"molecular_target": "DivIVAK20R-YFP (C. glutamicum)"}, "[4]": {"molecular_target": "DivIVAI18D-YFP (C. glutamicum)"}, "[5]": {"molecular_target": "DivIVAI18F-YFP (C. glutamicum)"}}}
{"substance": "ParB-CFP (natural protein)", "values": [{"measurement": "RCY (CFP/YFP emission ratio, FRET)", "setting": "[1]", "value": 1.16}]}
{"substance": "RodAE438G-CFP (natural protein)", "values": [{"measurement": "RCY (CFP/YFP emission ratio, FRET)", "setting": "[1]", "value": 1.1}]}
{"substance": "RodA-CFP (natural protein)", "values": [{"measurement": "RCY (CFP/YFP emission ratio, FRET)", "setting": "[2]", "value": 1.19}, {"measurement": "RCY (CFP/YFP emission ratio, FRET)", "setting": "[1]", "value": 1.15}, {"measurement": "RCY (CFP/YFP emission ratio, FRET)", "setting": "[3]", "value": 1.11}, {"measurement": "RCY (CFP/YFP emission ratio, FRET)", "setting": "[4]", "value": 1.14}, {"measurement": "RCY (CFP/YFP emission ratio, FRET)", "setting": "[5]", "value": 1.27}]}
